In assay [1] the target is T1, FA complementation group G (human, UniProt O15287 1-622).
T1 construct: HuProt array protein, full-length recombinant from yeast; also called FANCG
T1 sequence: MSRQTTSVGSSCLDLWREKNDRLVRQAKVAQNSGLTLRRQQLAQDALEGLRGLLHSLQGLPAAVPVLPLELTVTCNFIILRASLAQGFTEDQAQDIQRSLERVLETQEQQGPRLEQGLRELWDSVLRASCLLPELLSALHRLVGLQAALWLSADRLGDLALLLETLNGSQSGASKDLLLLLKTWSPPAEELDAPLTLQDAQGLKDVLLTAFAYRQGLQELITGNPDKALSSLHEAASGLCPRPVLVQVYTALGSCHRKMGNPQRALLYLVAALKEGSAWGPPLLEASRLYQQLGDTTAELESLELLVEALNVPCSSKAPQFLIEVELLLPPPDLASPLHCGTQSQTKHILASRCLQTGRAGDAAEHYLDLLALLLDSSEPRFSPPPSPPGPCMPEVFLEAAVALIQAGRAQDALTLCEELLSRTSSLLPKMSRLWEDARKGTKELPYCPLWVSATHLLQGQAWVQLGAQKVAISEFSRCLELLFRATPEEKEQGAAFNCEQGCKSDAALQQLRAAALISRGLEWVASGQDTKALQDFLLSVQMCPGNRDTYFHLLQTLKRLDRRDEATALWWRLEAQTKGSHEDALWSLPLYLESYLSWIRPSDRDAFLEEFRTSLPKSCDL

For assay [2], the target named is T2, DEAD-box helicase 18 (human, UniProt Q9NVP1 1-670).
T2 construct: HuProt array protein, full-length recombinant from yeast; also called DDX18
T2 sequence: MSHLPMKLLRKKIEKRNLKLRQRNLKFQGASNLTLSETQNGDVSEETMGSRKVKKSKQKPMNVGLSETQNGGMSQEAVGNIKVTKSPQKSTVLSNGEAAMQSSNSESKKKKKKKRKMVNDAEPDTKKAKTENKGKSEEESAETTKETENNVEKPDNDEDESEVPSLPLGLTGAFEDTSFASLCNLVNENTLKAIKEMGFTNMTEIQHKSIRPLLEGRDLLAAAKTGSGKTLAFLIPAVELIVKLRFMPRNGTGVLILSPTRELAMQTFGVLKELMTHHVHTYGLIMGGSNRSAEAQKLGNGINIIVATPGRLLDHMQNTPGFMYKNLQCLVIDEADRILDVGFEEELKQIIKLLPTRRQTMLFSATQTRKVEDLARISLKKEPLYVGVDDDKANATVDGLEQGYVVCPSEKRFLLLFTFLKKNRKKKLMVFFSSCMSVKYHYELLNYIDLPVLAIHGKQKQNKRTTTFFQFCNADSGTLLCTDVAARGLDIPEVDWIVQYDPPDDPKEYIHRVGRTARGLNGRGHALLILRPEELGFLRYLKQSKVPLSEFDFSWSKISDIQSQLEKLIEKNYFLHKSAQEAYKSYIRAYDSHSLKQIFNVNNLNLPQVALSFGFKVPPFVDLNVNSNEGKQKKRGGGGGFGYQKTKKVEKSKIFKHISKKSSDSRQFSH

In assay [3] the target is T3, geminin DNA replication inhibitor, transcript variant 1 (human, UniProt O75496 1-209).
T3 construct: HuProt array protein, full-length recombinant from yeast; also called GMNN
T3 sequence: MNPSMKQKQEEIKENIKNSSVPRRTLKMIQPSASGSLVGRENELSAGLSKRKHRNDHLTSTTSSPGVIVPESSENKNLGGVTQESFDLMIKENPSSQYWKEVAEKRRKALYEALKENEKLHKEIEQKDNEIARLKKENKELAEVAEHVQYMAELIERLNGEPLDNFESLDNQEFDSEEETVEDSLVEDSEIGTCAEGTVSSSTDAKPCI

In assay [4] the target is T4, syntaxin 1A, transcript variant 1 (human, UniProt Q16623 1-288).
T4 construct: HuProt array protein, full-length recombinant from yeast; also called STX1A

The target of assay [5] is T5, Egf like and emi domain containing 1, pseudogene (human, UniProt Q0D2K5 1-195).
T5 construct: HuProt array protein; pseudogene product; also called EGFEM1P
T5 sequence: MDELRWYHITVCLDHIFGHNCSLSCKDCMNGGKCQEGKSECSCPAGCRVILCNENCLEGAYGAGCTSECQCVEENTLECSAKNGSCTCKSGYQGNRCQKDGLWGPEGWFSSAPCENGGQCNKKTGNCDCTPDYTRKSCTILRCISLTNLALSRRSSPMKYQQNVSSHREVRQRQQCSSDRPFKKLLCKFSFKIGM

Assay [6] has as its target T6, endosome associated trafficking regulator 1, transcript variant 2 (human, UniProt Q96C92 59-435).
T6 construct: HuProt array protein, full-length recombinant from yeast; also called SDCCAG3
T6 chain: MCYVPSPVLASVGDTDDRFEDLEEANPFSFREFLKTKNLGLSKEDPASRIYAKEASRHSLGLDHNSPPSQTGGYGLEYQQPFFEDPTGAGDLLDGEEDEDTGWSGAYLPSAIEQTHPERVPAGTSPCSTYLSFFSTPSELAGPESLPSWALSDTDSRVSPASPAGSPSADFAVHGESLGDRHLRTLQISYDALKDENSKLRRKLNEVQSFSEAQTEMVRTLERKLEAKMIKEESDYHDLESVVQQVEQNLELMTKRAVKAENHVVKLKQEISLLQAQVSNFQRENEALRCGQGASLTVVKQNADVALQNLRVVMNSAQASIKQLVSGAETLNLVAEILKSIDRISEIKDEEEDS

In assay [7] the target is T7, charged multivesicular body protein 4B (human, UniProt Q9H444 2-224).
T7 construct: HuProt array protein, full-length recombinant from yeast; also called CHMP4B
T7 sequence: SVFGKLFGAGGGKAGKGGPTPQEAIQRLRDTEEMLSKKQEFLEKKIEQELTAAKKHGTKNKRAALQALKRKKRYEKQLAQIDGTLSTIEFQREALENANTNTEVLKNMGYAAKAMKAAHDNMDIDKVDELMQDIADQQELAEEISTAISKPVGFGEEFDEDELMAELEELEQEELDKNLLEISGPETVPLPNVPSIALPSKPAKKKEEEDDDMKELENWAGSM

The target in assay [8] is T8, X-linked inhibitor of apoptosis, transcript variant 2 (human, UniProt P98170 1-497).
T8 construct: HuProt array protein, full-length recombinant from yeast; also called XIAP

Assay [9] concerns the target T9, ganglioside induced differentiation associated protein 1, transcript variant 2 (human, UniProt Q8TB36 69-358).
T9 construct: HuProt array protein, full-length recombinant from yeast; also called GDAP1
T9 sequence: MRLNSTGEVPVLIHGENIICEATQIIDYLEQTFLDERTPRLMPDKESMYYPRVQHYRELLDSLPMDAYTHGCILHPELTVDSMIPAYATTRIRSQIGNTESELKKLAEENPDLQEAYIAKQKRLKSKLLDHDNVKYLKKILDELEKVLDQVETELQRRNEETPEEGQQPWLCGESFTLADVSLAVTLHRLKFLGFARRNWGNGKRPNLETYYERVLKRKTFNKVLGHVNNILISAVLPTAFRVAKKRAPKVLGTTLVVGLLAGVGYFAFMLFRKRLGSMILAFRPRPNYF

Assay [10] concerns the target T10, SATB homeobox 2, transcript variant 2 (human, UniProt Q9UPW6 1-733).
T10 construct: HuProt array protein, full-length recombinant from yeast; also called SATB2
T10 sequence: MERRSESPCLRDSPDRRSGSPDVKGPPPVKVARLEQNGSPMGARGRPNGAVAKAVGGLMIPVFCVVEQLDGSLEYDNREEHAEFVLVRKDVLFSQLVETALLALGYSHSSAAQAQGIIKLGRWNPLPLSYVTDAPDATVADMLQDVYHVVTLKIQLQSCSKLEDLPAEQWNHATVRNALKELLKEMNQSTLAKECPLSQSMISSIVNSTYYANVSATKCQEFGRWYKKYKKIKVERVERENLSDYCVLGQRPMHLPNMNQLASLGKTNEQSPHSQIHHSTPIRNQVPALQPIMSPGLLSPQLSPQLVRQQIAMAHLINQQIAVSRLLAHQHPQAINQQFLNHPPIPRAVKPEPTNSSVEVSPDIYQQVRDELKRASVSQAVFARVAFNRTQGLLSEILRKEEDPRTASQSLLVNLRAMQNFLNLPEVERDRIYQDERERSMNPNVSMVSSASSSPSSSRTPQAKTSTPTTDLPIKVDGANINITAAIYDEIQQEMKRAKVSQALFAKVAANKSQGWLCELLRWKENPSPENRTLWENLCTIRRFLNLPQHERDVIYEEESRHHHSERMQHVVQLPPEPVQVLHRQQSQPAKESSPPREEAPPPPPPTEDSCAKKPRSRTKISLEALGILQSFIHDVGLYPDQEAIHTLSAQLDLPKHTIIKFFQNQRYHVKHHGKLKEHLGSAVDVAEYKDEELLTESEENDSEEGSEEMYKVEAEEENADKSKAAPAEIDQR

The target of assay [11] is T11, zinc finger protein 8 (human, UniProt P17098 1-575).
T11 construct: HuProt array protein, full-length recombinant from yeast; also called ZNF8

Results on six molecules are retold here after patent US20220204643A1 (published 2022).

T8 sequence (P98170 whole entry, change not shown): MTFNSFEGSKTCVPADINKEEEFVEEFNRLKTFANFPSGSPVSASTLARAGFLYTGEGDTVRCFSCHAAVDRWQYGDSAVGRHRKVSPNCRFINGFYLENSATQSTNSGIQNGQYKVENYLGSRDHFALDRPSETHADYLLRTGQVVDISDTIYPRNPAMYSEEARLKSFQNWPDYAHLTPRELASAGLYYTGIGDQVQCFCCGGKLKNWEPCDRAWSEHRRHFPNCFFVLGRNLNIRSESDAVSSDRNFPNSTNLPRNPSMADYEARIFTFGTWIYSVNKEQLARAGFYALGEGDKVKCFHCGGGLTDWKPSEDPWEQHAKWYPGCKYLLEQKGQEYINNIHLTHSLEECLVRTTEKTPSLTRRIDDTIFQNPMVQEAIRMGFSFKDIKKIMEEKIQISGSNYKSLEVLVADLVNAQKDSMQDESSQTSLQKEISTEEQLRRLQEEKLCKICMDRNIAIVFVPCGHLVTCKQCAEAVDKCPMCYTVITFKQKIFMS
T4 sequence (Q16623 whole entry, change not shown): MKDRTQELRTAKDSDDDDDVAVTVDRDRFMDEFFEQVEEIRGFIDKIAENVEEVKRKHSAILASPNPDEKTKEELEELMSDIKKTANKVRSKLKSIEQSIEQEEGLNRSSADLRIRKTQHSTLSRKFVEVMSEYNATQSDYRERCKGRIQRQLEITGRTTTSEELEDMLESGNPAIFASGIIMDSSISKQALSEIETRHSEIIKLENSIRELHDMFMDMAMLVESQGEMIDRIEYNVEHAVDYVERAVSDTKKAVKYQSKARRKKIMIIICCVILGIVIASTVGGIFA
T11 sequence (P17098 whole entry): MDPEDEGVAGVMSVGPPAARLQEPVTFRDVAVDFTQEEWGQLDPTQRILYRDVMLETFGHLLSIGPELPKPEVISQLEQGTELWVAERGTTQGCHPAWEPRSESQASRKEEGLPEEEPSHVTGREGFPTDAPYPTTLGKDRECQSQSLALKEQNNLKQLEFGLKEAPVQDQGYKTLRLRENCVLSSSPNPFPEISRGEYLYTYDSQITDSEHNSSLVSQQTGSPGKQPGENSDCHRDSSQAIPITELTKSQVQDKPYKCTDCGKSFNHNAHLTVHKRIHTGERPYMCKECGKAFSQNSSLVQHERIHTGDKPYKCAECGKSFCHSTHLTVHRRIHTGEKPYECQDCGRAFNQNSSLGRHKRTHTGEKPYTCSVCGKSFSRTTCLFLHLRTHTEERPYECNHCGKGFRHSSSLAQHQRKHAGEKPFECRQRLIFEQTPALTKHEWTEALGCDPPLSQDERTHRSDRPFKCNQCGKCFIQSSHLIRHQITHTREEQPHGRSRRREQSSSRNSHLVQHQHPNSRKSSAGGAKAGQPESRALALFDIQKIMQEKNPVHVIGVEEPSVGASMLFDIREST

B1: TBRE1024 (antibody, V domains shown)
VH: PVQLQESGPGLVKPSETLSLTCTVSGGSISSDNYYWSWLRQHPGKGLEWIGYIYFSVTTYYNPSLKSRVTISLDTSKNQFSLKLSSVTAADTAVYYCASGYVSFDLWGQGTLVTVSS
VL: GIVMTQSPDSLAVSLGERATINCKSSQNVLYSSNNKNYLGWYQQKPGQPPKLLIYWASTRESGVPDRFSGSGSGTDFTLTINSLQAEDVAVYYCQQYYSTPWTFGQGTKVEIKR
notes: detected with anti-human IgG Fc
Consider B1, for which the binding result in assay [1] is “binds”.

B2: TBRE1027 (antibody, V domains shown)
VH: EVQLLESGGGLVQPGGSLRLSCAASGFTFSSYAMSWVRQAPGKGLEWVSTISGSGHSTYYADSVKGRFTISRDNSKNTLYLQMNSLRAEDTAVYYCAKSTLGGGFDFWGQGTLVTVSS
VL: DIQMTQSPFSLSASVGDRVTITCRASQSISSYLNWYQQKPGKAPKLLIYAASSLQSGVPSRFSGSGSGTDFTLTISSLQPEDFATYYCHQSYSTSLTFGGGTKVEIKR
notes: as for B1
On to B2, for which the binding result in [2], in assay [3] and in assay [4] was “binds” each time.

B3: TBRE1036 (antibody, V domains shown)
VH: QVQLVESGGGVVQPGRSLRLSCAASGFTFSSYAMHWVRQAPGKGLEWVAVISYDGSNKYYADSLKGRFTISRDNSKDTLYLQVNSLRPEDTAVYYCARVNIAAAGTLDYWGQGTLVTVSS
VL: EIVLTQSPGTLSLSPGERATLSCRASQSVSSRYLAWYQQKPGQAPRLLIHGASSRATGIPDRFSGSGSGTDFTLTISRLEPEDFAVYYCQQYGSAWTFGQGTKVEIKR
notes: as for B1
Consider B3, for which, in [5], the binding result was “binds”.

B4: TBRE1034 (antibody, V domains shown)
VH: QVQLVESGGGLVEPGGSLRLSCAASGFTFSDYYMSWIRQAPGKRLEWISHMSSGGNRRHYADSVRGRFTISRDNAKNSLYLQMNSMRADDTAVYYCARDKRSGMTSDRRIDYWGQGTRVTVSS
VL: DIQMTQSPSSLSASVGDRITITCRASQSVGTYLSWFQQKPGKAPKLLIYAASSLQSGVPSRFSGSGSGTDFTLTISSLQPEDFATYFCQQSYSVPPWTFGQGTKVEIKR
notes: as for B1
In the case of B4, the binding result in [6] and in [7] was “binds” throughout.

B5: TBRE1032 (antibody, V domains shown)
VH: EVQLVESGGGLVQPGGSLRLSCAASGFTFSSYDFHWVRQPTGKGLEWVSAIGTAGDTLYLDSVKGRFTISRENAKNSLYLQMNSLRAGDTAVYYCARVNWNSDTFDSWGQGTLVTVSS
VL: VSSELTQDPAVSVALGQTVRITCQGDSLRRYYASWYQQKAGQAPILVIYGENNRPSGIPDRFSGSGSGNTASLTITGAQAEDEADYYCDSRDSSGNLVVFGGGTKLTVL
notes: as for B1
In the case of B5, the binding result in assay [8] is given as “binds”.

B6: TBRE1017 (antibody, V domains shown)
VH: QVQLVQSGAEVKKPGASVKVSCKASGYNFRDYYMHWVRQAPGQGLEWMGWINPNSGGTISAQNFQGRVTMTRDTSISTAYMEVNSLRSDDTAVYYCAVGMVTDGFEIWGQGTLVTVSS
VL: PYELTQPPSVSVSPGQTARITCSGDALPNENAFWYQQKPGQAPVLVIYEDIKRPSGIPERFSGSSSGTTVTLTISGVQAEDEADYYCQSVDITSTWVFGGGTKLTVLG
notes: as for B1
Regarding B6, the binding result in [9], in [10] and in assay [11] was “binds” throughout.
